Usually Kd stands for the free concentration of one partner at which half of the binding sites on the other are occupied at equilibrium, for simple one-to-one binding.

The target in test [1] is T1, IFNAR-1 on human cells (human, UniProt P17181 28-557).
T1 sequence (looked up): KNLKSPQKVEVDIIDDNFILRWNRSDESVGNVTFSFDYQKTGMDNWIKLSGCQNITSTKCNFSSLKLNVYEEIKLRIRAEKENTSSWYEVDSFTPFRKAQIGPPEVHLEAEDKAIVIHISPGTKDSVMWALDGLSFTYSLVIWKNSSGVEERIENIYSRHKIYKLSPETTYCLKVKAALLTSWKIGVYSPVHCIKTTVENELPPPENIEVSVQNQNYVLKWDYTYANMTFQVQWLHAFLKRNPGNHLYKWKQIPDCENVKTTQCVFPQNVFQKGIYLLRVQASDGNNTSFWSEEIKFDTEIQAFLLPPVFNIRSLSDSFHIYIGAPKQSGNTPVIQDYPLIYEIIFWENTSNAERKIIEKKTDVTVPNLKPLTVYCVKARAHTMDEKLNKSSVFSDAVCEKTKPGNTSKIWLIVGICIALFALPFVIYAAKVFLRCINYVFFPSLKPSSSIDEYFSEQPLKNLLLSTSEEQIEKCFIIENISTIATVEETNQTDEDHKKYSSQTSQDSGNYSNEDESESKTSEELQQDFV
The test can be described thus: cell-based or functional assay.

Test [2] concerns the target T1, IFNAR-1 on human cells. Kind of test: cell-based or functional assay. This is another data set of the same source.
The target in test [3] is T1, IFNAR-1 on human cells. The test can be described thus: Scatchard analysis, 125I-labelled antibody on BALL-1 cells. The method, then:
BALL-1 cells, which express IFNAR-1 and IFNAR-2, were used to assess the binding of anti-IFNAR-1 humanized antibodies to cells by Scatchard analysis. The cells were grown in RPMI containing 10% FCS and washed twice with Hanks Balanced Salt Solution (HBSS) at 4 degrees C. […] Millipore plates (MAFB NOB) were coated with 1% nonfat dry milk in water and stored a 4° C. overnight. The plates were washed with binding buffer and 25 ul of unlabeled antibody (1000-fold excess) in TBS binding buffer was added to control wells in a Millipore 96 well glass fiber filter plate (non-specific binding NSB). Twenty-five microliters of buffer alone was added to the maximum binding control well (total binding). Twenty-five microliters of ¹²⁵I-anti-IFNAR-1 antibody and 25 ul of BALL-I cell suspension (4×10⁷ cells/ml) in TBS binding buffer were added. The plates were incubated for 2 hours at 200 RPM on a shaker at 4° C. At the completion of the incubation the Millipore plates were washed twice with 0.2 ml of cold TBS binding buffer containing a final concentration of 0.5 M NaCl. The filters were removed and counted in a gamma counter. Evaluation of equilibrium binding was performed using single site binding parameters with the Prism software (San Diego, Calif.).
Therefore in either a protein-based or cell-based assay, the binding affinity of the antibodies are in the low nM range.

Test [4] deals with T2, purified recombinant IFNAR-1 extracellular fragment (human, UniProt P17181 28-436).
T2 construct: extracellular domain; also called soluble IFNAR-1; soluble IFNAR
T2 sequence (looked up): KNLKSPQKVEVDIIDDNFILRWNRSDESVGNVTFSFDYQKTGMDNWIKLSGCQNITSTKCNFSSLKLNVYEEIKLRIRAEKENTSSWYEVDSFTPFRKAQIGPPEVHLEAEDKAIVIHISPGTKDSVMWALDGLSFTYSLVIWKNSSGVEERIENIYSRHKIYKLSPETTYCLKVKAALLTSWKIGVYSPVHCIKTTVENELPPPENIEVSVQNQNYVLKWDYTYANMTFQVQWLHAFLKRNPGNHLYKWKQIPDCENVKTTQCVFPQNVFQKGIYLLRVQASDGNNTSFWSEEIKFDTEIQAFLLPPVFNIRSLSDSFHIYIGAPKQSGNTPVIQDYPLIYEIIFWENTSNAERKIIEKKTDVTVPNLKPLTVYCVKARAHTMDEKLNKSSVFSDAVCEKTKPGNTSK
Kind of test: Biacore, IFNAR-1 extracellular fragment coupled to CM5 chip, antibody 1.75-80 nM. The method, then: Antibodies from clones 64G12, H2K6, H2K1, H3K6, and H3K1 were assayed by Biacore analysis (Biacore AB, Uppsala, Sweden) to determine binding kinetics. Purified recombinant IFNAR-1 extracellular fragment was coupled to the CM5 sensor chip @ 600 RU. Binding was measured by adding antibody at concentrations from 1.75-80 nM at a flow rate of 20 ul/min. The binding curves were fit to a Langmuir binding model using BIAevaluation software (Biacore AB, Uppsala, Sweden).
For orientation: In SPR one partner is held on a chip, and binding of the other changes the refractive index at the surface.

The target in test [5] is T2, purified recombinant IFNAR-1 …. The test can be described thus: Receptor Binding (Biacore), purified recombinant receptor; Biacore, purified recombinant receptor (not BALL-1 cells).

B1: H3K1 (IgG1) (antibody, V domains shown)
VH: EVQLVESGGGLVQPGGSLRLSCAFSGFTLSTSGMGIGWVRQAPGKGLEWVAHIWWDDDKYYNPSLKSRFTISRDTSKNTVYLQMNSLRAEDTAVYYCARNYYPYDAWFDYWGQGTLVTVS
VL: DIQMTQSPSSLSASVGDRVTITCSASSSINSNHLHWYQQKPGKAPKLLIYRTSILASGVPSRFSGSGSGTSFTLTISSLQPEDFATYYCQQGSNIPFTFGQGTKVEIKR
For the molecule B1, the “ISRE-RG reporter assay with IFNβ, potency against H3K1 (IgG4)” value with IFNAR-1 on human cells [1] is about 10 fold. In the test with IFNAR-1 on human cells [2], the “Cell Proliferation (Daudi) IC50, cells cultured with interferon α2b” value came to 3.9 nM and the “ISRE-RG Reporter (U937) IC50, interferon α2b” value turned out to be 2.7 nM.

B2: murine monoclonal antibody 64G12 (antibody, V domains shown)
VH: QVTLKESGPGILKPSQTLSLTCSFSGFSLSTSGMGIGWIRQPSGKGLEWLAHIWWDDDKYYNPSLKSQLTISRDTSTNQVFLNITSVDTVDTATYYCGRNYYPYDAWFDYWGQGTLVTVS
VL: EIVLTQSPTTMAASPGEKITITCSASSSINSNHLHWYQQKPGFSPKVLIYRTSILASGVPTRFSGSGSGTSYSLTIGTMEAEDVATYYCQQGSNIPFTFGSGTELEIKR
notes: Mouse IgG1, kappa light chain; also called 64G12 (mouse IgG1); murine anti-IFNAR-1 mAb 64G12
B2: the “fold decrease in ISRE-RG reporter assay with IFNβ, potency against H3K1 (IgG1)” value with IFNAR-1 on human cells [1] was determined as 3 fold. For the same molecule, the “Cell Proliferation (Daudi) IC50, cells cultured with interferon α2b” value with IFNAR-1 on human cells [2] was 2.1 nM. Also, the “ISRE-RG Reporter (U937) IC50, interferon α2b” value in the test with IFNAR-1 on human cells [2] amounted to 5.8 nM. Further, the Kd with IFNAR-1 on human cells [3] was 3.9 nM; in test [4] it was 1.2 nM; in test [5] it was 1.2 nM.

Source of the values: patent US20050208041A1 (Bristol-Myers Squibb, published 2005).
